What was measured:
HLA-A*24:03 [1] = assay: IEDB peptide-MHC binding, purified MHC/competitive/fluorescence; filed as Kd, often an IC50 or EC50 that approximates it; ≥ and ≤ were set here for values at or beyond the usual limits of such assays
HLA-A*02:12 = assay: IEDB peptide-MHC binding, purified MHC/direct/fluorescence; filed as Kd, often an IC50 or EC50 that approximates it; ≥ and ≤ were set here for values at or beyond the usual limits of such assays
HLA-A*02:16 = assay: as above
HLA-A*02:19 = assay: as above
HLA-A*03:01 = assay: as above
HLA-A*29:02 = assay: as above
HLA-A*26:01 = assay: IEDB peptide-MHC binding, purified MHC/competitive/fluorescence; filed as Kd, often an IC50 or EC50 that approximates it; ≥ and ≤ were set here for values at or beyond the usual limits of such assays
HLA-A*69:01 [2] = assay: as above
HLA-B*15:01 [3] = assay: as above
HLA-B*18:01 [4] = assay: as above
HLA-B*27:03 = assay: as above
HLA-B*39:01 = assay: as above
HLA-B*46:01 [5] = assay: as above
HLA-B*58:01 [6] = assay: as above
HLA-A*02:03 = assay: IEDB peptide-MHC binding, purified MHC/direct/fluorescence; filed as Kd, often an IC50 or EC50 that approximates it; ≥ and ≤ were set here for values at or beyond the usual limits of such assays
HLA-A*68:02 = assay: as above
HLA-A*02:01 [7] = assay: IEDB peptide-MHC binding, purified MHC/competitive/fluorescence; filed as Kd, often an IC50 or EC50 that approximates it; ≥ and ≤ were set here for values at or beyond the usual limits of such assays
HLA-B*15:17 [8] = assay: as above
HLA-B*51:01 = assay: as above
HLA-B*57:01 [9] = assay: as above
HLA-A*02:01 [10] = assay: IEDB peptide-MHC binding, purified MHC/competitive/fluorescence; ≥ and ≤ were set here for values at or beyond the usual limits of such assays; details: source organism: Sudan ebolavirus
HLA-B*08:01 [11] = assay: as above; details: source organism: Sudan ebolavirus
HLA-A*02:01 [12] = assay: IEDB peptide-MHC binding, purified MHC/direct/fluorescence; filed as Kd, often an IC50 or EC50 that approximates it; ≥ and ≤ were set here for values at or beyond the usual limits of such assays
HLA-A*23:01 = assay: as above
HLA-A*24:03 [13] = assay: as above
HLA-A*69:01 [14] = assay: as above
HLA-A*01:01 = assay: as above; details: source organism: Bacillus anthracis
HLA-A*31:01 = assay: as above; details: source organism: Bacillus anthracis
HLA-B*08:01 [15] = assay: as above; details: source organism: Bacillus cereus 03BB108
HLA-B*15:17 [16] = assay: as above; details: source organism: Bacillus anthracis
HLA-B*18:01 [17] = assay: as above; details: source organism: Bacillus anthracis
HLA-B*27:05 = assay: as above; details: source organism: Bacillus anthracis
HLA-B*40:01 = assay: as above; details: source organism: Bacillus anthracis
HLA-B*46:01 [18] = assay: as above; details: source organism: Bacillus anthracis
HLA-B*48:01 = assay: as above; details: source organism: Bacillus anthracis
HLA-B*57:01 [19] = assay: as above; details: source organism: Bacillus anthracis
HLA-B*58:01 [20] = assay: as above; details: source organism: Bacillus anthracis
HLA-A*11:01 = assay: IEDB peptide-MHC binding, purified MHC/competitive/fluorescence; filed as Kd, often an IC50 or EC50 that approximates it; ≥ and ≤ were set here for values at or beyond the usual limits of such assays; details: source organism: Bacillus anthracis str. A0389
HLA-C*12:03 = assay: IEDB peptide-MHC binding, purified MHC/direct/fluorescence; filed as Kd, often an IC50 or EC50 that approximates it; ≥ and ≤ were set here for values at or beyond the usual limits of such assays; details: source organism: Zaire ebolavirus
HLA-A*02:11 = assay: as above; details: source organism: Zaire ebolavirus
HLA-B*15:01 [21] = assay: as above; details: source organism: Nitrococcus mobilis Nb-231
[22] = source organism: Limestone Canyon virus
[23] = source organism: Four Corners hantavirus
[24] = source organism: Araucaria virus
[25] = source organism: Zaire ebolavirus
[26] = source organism: Rickettsia sibirica 246
[27] = source organism: Bacillus anthracis
[28] = source organism: Rickettsia felis URRWXCal2

## CYPYDVPDY
HLA-A*24:03 [1]; source organism: Influenza A virus
  Kd: 0.223 µM

## KSAFYQSYL
HLA-A*02:12; [22]
  Kd: ≥ 20 µM
HLA-A*02:16; [22]
  Kd: ≥ 20 µM
HLA-A*02:19; [22]
  Kd: ≥ 20 µM
HLA-A*03:01; [22]
  Kd: ≥ 20 µM
HLA-A*29:02; [22]
  Kd: ≥ 20 µM
HLA-A*26:01; [23]
  Kd: ≥ 20 µM
HLA-A*69:01 [2]; [23]
  Kd: ≥ 20 µM
HLA-B*15:01 [3]; [23]
  Kd: ≥ 20 µM
HLA-B*18:01 [4]; [23]
  Kd: ≥ 20 µM
HLA-B*27:03; [23]
  Kd: ≥ 20 µM
HLA-B*39:01; [23]
  Kd: ≥ 20 µM
HLA-B*46:01 [5]; [23]
  Kd: ≥ 20 µM
HLA-B*58:01 [6]; [23]
  Kd: 0.0021 µM

## LYVAGVPEL
HLA-A*02:03; [24]
  Kd: ≥ 20 µM
HLA-A*02:12; [24]
  Kd: ≥ 20 µM
HLA-A*02:16; [24]
  Kd: ≥ 20 µM
HLA-A*02:19; [24]
  Kd: ≥ 20 µM
HLA-A*03:01; [24]
  Kd: ≥ 20 µM
HLA-A*29:02; [24]
  Kd: ≥ 20 µM
HLA-A*68:02; [24]
  Kd: ≥ 20 µM
HLA-A*02:01 [7]; [24]
  Kd: ≥ 20 µM
HLA-A*24:03 [1]; [24]
  Kd: 0.0003 µM
HLA-A*26:01; [24]
  Kd: ≥ 20 µM
HLA-A*69:01 [2]; [24]
  Kd: ≥ 20 µM
HLA-B*15:17 [8]; [24]
  Kd: ≥ 20 µM
HLA-B*18:01 [4]; [24]
  Kd: ≥ 20 µM
HLA-B*27:03; [24]
  Kd: ≥ 20 µM
HLA-B*39:01; [24]
  Kd: ≥ 20 µM
HLA-B*46:01 [5]; [24]
  Kd: ≥ 20 µM
HLA-B*51:01; [24]
  Kd: ≥ 20 µM
HLA-B*57:01 [9]; [24]
  Kd: ≥ 20 µM

## STVADEIAF
HLA-B*58:01 [6]; source organism: Escherichia coli E22
  Kd: 1.78 µM

## FLYDRLAST
HLA-A*02:01 [10]
  IC50: 0.887 µM
HLA-B*08:01 [11]
  IC50: 40.6 µM
HLA-A*02:01 [12]; [25]
  Kd: 0.0022 µM
HLA-A*03:01; [25]
  Kd: ≥ 20 µM
HLA-A*23:01; [25]
  Kd: ≥ 20 µM
HLA-A*24:03 [13]; [25]
  Kd: ≥ 20 µM
HLA-A*29:02; [25]
  Kd: ≥ 20 µM
HLA-A*26:01; [25]
  Kd: ≥ 20 µM
HLA-A*69:01 [2]; [25]
  Kd: ≥ 20 µM
HLA-B*15:01 [3]; [25]
  Kd: ≥ 20 µM
HLA-B*15:17 [8]; [25]
  Kd: ≥ 20 µM
HLA-B*18:01 [4]; [25]
  Kd: ≥ 20 µM
HLA-B*27:03; [25]
  Kd: ≥ 20 µM
HLA-B*46:01 [5]; [25]
  Kd: ≥ 20 µM
HLA-B*51:01; [25]
  Kd: ≥ 20 µM
HLA-B*57:01 [9]; [25]
  Kd: ≥ 20 µM

## IYQARFMKY
HLA-A*69:01 [14]; source organism: Burkholderia mallei
  Kd: ≥ 20 µM
HLA-A*24:03 [1]; source organism: Pseudomonas aeruginosa PACS2
  Kd: 0.0008 µM

## MFSVYDYGF
HLA-A*23:01; [26]
  Kd: 0.003 µM
HLA-A*24:03 [13]; [26]
  Kd: 0.003 µM

## VTECKLIYY
HLA-A*01:01
  Kd: 0.007 µM
HLA-A*02:01 [12]; [27]
  Kd: ≥ 20 µM
HLA-A*03:01; [27]
  Kd: ≥ 20 µM
HLA-A*31:01
  Kd: ≥ 20 µM
HLA-A*69:01 [14]; [27]
  Kd: ≥ 20 µM
HLA-B*08:01 [15]
  Kd: ≥ 20 µM
HLA-B*15:17 [16]
  Kd: 0.0347 µM
HLA-B*18:01 [17]
  Kd: ≥ 20 µM
HLA-B*27:05
  Kd: ≥ 20 µM
HLA-B*40:01
  Kd: ≥ 20 µM
HLA-B*46:01 [18]
  Kd: ≥ 20 µM
HLA-B*48:01
  Kd: ≥ 20 µM
HLA-B*57:01 [19]
  Kd: ≥ 20 µM
HLA-B*58:01 [20]
  Kd: ≥ 20 µM
HLA-A*11:01
  Kd: 1.26 µM
HLA-B*15:01 [3]; source organism: Bacillus anthracis str. A0389
  Kd: ≥ 20 µM

## IMYDHLPGF
HLA-A*02:03; [25]
  Kd: ≥ 20 µM
HLA-A*02:12; [25]
  Kd: ≥ 20 µM
HLA-A*02:16; [25]
  Kd: ≥ 20 µM
HLA-A*02:19; [25]
  Kd: ≥ 20 µM
HLA-A*03:01; [25]
  Kd: ≥ 20 µM
HLA-A*68:02; [25]
  Kd: ≥ 20 µM
HLA-C*12:03
  Kd: 0.306 µM
HLA-A*02:01 [7]; [25]
  Kd: ≥ 20 µM
HLA-A*26:01; [25]
  Kd: ≥ 20 µM
HLA-A*69:01 [2]; [25]
  Kd: ≥ 20 µM
HLA-B*18:01 [4]; [25]
  Kd: ≥ 20 µM
HLA-B*27:03; [25]
  Kd: ≥ 20 µM
HLA-B*39:01; [25]
  Kd: ≥ 20 µM
HLA-B*57:01 [9]; [25]
  Kd: ≥ 20 µM
HLA-B*58:01 [6]; [25]
  Kd: 0.0731 µM

## GYTVARSQL
HLA-A*23:01; [28]
  Kd: 0.466 µM
HLA-A*24:03 [13]; [28]
  Kd: 0.022 µM

## ISSGETRSF
HLA-A*02:03; [25]
  Kd: ≥ 20 µM
HLA-A*02:11
  Kd: ≥ 20 µM
HLA-A*02:12; [25]
  Kd: ≥ 20 µM
HLA-A*02:16; [25]
  Kd: ≥ 20 µM
HLA-A*02:19; [25]
  Kd: ≥ 20 µM
HLA-A*03:01; [25]
  Kd: ≥ 20 µM
HLA-A*29:02; [25]
  Kd: ≥ 20 µM
HLA-A*68:02; [25]
  Kd: ≥ 20 µM
HLA-B*15:01 [21]
  Kd: 3.6 µM
HLA-A*02:01 [7]; [25]
  Kd: ≥ 20 µM
HLA-A*26:01; [25]
  Kd: ≥ 20 µM
HLA-A*69:01 [2]; [25]
  Kd: ≥ 20 µM
HLA-B*18:01 [4]; [25]
  Kd: ≥ 20 µM
HLA-B*27:03; [25]
  Kd: ≥ 20 µM
HLA-B*39:01; [25]
  Kd: ≥ 20 µM
HLA-B*46:01 [5]; [25]
  Kd: ≥ 20 µM
HLA-B*51:01; [25]
  Kd: ≥ 20 µM
HLA-B*57:01 [9]; [25]
  Kd: ≥ 20 µM
HLA-B*58:01 [6]; [25]
  Kd: 0.351 µM

From the Immune Epitope Database (IEDB)
